# Assay results published in the supplement of paper PMC9170038.
# System: K4 kissing-loop RNA reporter
# Experiment: apparent KD of K4 kissing-loop reporter; higher = weaker reporter binding
# Details: Eterna round: R107
# Procedure: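 RNA-MaP round R107: designed RNA switches with theophylline, tryptophan, arginine or FMN aptamers are transcribed on-chip within common flanks. They are titrated with a labelled K4 kissing-loop RNA reporter in RNA-MaP buffer (100 mM Tris pH 7.5, 80 mM KCl, 4 mM MgCl2), without ligand or with the indicated ligand. Median apparent KD per design.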
# [1] = input ligand: theophylline 20 uM
# [2] = input ligand: tryptophan 2.4 mM
# 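Also: bound reporter read as fluorescence of individual clusters on recovered sequencing chips by microscopy, with normalized cluster intensities fitted with a binding model.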
Sequence,apparent KD of K4 kissing-loop reporter (input ligand: FMN 200 uM) [nM],apparent KD of K4 kissing-loop reporter (input ligand: arginine 13.2 mM) [nM],apparent KD of K4 kissing-loop reporter (input ligand: none) [nM],apparent KD of K4 kissing-loop reporter [1] [nM],apparent KD of K4 kissing-loop reporter [2] [nM]
AACUGUCGAGGACAACAUUACUGAGGUGAUACCAGCAUCGAAAGAUGCCCUUGGCAGCACCAACUUGCAGUGAUGUUGCAAGUAA [BrourdMod 9 - Jieux - Exclusion - Theophylline A],356,324,343,473,314
CAUGGUGCUCGCCAGUUGUGCGAACGGUGGGAGGAUAUGUCGCGAGACAGAAGGCCCAGUGAUGUUGGGCAGGCUCGUAGAUCGA [Mazadi],158,113,129,165,127
CGAGUGAUGUUCGUUUUUUACUCUGUUUGACAGGAUAUGCGGAAACGCAGAAGGGUCACCUUUGAGUUAGACGGAGUUAUUUUUU [Ex FMN A 21],409,287,322,309,290
UGUAUGUGAUUUGAUACCAGACCAGCUGGUGGUAUAUGAGUGAUGUUCAUGUUGGUUUGGGUCCCUUGGCAGCAAAUCGCAUACU [KL-SSTheoB10],271,183,217,213,212
CGCAAGCAGCCAGUGAUGUUGGCCGCCUUGCGAGGACCGGUACGGCCGCCACUCGAAGGCGGCUACUGGUAAACCGUCUAACGGA [Oronorenma],94.9,71.7,66.4,62.8,90.1
UUGAGCCGGACCCAAGUCCGGCUCUGCGAGCGAGGACCGGUACGGCCGCCACUCGGUGCAGUGAUGUUGCAUGGCCGCAAGGCCG [#2 Exclusion - Tryptophan A Attempt #7 (HarryS)],439,294,377,372,460
AACUAUUAAUGAAUUACAUUUUAUUUUUCUCGAGGACCGGUACGGCCGCCACUCGUACUAUAGUGAUGUUAUAGAUAAGUCCUAA [JR_ExcTryptoA_Sub021],118,184,134,177,71.3
GGUAGCAUGGCGGCCGCCACUGAGCAAGUGAUGUUUGCCUCCCUACCCUAGUGUCGAGAGUAUAUCAGGACCGGGCCAUGCUACC,188,132,149,164,136
ACGUAGUUCUAGGAUACCAGCCAAGAUGCCAGGACAAAAGUCCUGGCAGCCAGUGAUGUUGGCCCUUGGCAGCCUAGAACUACGA [Omei KL Theo B Exc B v9],149,115,132,121,120
GUAGGAUGAGGAGGAGGAUGAAUUACUGAAGGAGCGCAUAUUAAUGCAGGUAGGUCGCGGUAAAGAAGUAUAGUGAUGUUAUAUA [SSArgA.H],238,538,589,399,234
AGAACUGUCUUGGAUACCAGUGAUGUUGGUAUCGAUGUGUGAGUGCAAAGCGUCCCACAUCGCCCUUGGCAGCUAAGACAGUUCA [Omei KL Theo B Exc A v5],331,292,341,375,292
CUUGUACAAGUGAUGUUUGUUAUAUCCGAAGGAGCGUCGUACUAGACAGGUAGGUCGCGGAUGAAGAUAGUUUUUUUAAUAUCAU [JR_Nu_SSArginiA_Sub028],687,474,761,648,533
AAUAAAAUCACGGCCGCCACUGAUUAGCAUAUUAGGAGUGAUGUUUCUAUGACUAUAUAAUUGAACAGGACCGGGUGAAUAUUUA [#20 K4 Tryptophan B Exclusion],424,294,417,314,400
UGAUAGGACAGAAGGAGCGGUAGUGAUGUUACCAAAAGAAUAAGGUGUCAAAAGACACCCUACCAGGUAGGUCGCUGUCCUAUCU,170,237,189,220,179
UGGAUAUAGUGAUGUUAUAUAGAGAGUGAUACCAGUUUAGAGAAGAACCCUUGGCAGCAUAGAGAAGUAUCAUUAGAGAAGAAUG [ExTheophyl.Ap],220,208,233,240,180
UAUCUAUGCUCGGCCGCCACUAGGACCGGGAGGUAACUAGUGAUGUUAGUAUCUUCGGCCGCCACUAGGACCGGGAGUGUAGAUA [KL-SSTryp-B17 #DoubleAptamer],115,95.2,92.7,95.5,74.6
GGUUUAUAGGAGGAUACCAGUACGGAUAAAGUACGUUAAUAGUAGAGUGAUGUUCUAAAGUACCCUUGGCAGCUUAGAGUGAGUU [ExTheophylB.L],105,157,122,159,78.8
GCGGCCCAGCCGGAUACCAGUGACCCGCUGGGAACCGCGGGCCCAGAGUGAUGUUCGGGACACCCUUGGCAGCCGCCUGGGUCGC [#2 Same State - Theophylline B Attempt #18 (HarryS)],689,274,928,684,320
ACCCGUAGGAUACGGAGGUGUAAAUGGGUAUAGGAUAUCUAGAAAUAGAGAAGGAUACCAGUGAUGUUGGUUCCGUAUAUCUUAA,272,137,105,90,119
AUUAAUAACUGAGGAUAUCGUUUUACUGUAGUGAUGUUACAGAAAAUUCACAUUAUAAUUUCUAUUCGAGAAGGCAGAAUAAUUA [JR_ExcFMNB_Sub014],106,74.6,65.2,71.9,65.1
AUCAGCCUCAGAAGGAGCGUGAGUUUUAAGAGGCUGGAGUGAUGUUCCAGACAUAACGACUCACAGGUAGGUCGCUGAGACUAGU [Arg B SS t1],132,99.8,121,98.5,114
UGGGUGUAGUGAUGUUAUAUAGAGAGUGAUACCAGUUUAGAGAAGAACCCUUGGCAGCAUAGAAGAGUAUCAUUGGAGGAGGAGG [ExTheophyl.Av],361,413,336,268,289

Sequence,apparent KD of K4 kissing-loop reporter (input ligand: FMN 200 uM) [nM],apparent KD of K4 kissing-loop reporter (input ligand: arginine 13.2 mM) [nM],apparent KD of K4 kissing-loop reporter (input ligand: none) [nM],apparent KD of K4 kissing-loop reporter [1] [nM],apparent KD of K4 kissing-loop reporter [2] [nM]
UUUUUAUAAGAGGAUACCAGUACAAAUAAAGUACAUUAAUAGUAGAGUGAUGUUCUAAAGUACCCUUGGCAGCUUAGAUUAAGUU [ExTheophylB.D],158,268,172,255,117
AAACAAGAUGCAGGAUAUACGGACCCAGUGAUGUUGGGUAGAAUUGUCCCGGCAAUCCUUGUGGCAGUAGAAGGGCAAUAAAAGA [Gexeraora],271,134,169,144,151
AGUGGACAUGUCUAGAGUGAUGUUCUGGAUACCAGACACGAAAGUGUCCCUUGGCAGCCGGAGUGAUGUUCUGGAGUUCACUAAA [Omei KL Theo A Exc B v8],612,296,550,485,436
CUUCGUAAAGGCCCAGUGAUGUUGGGCACUCGAGGACCGGUACGGCCGCCACUCGCUCCCUAAGUCGCGCGCGUGGGCCACCGCC [Xeteoredre],111,110,99.4,104,113
AAGUGAUGUUGUAGUGAUGUUGUGAUGUUGCAGGAUAUAUAGUGAUGUAGAAGGGUAUGUGCAGUUUUAUUUUUUGAGUGUUGAU [ttytmullin],72.1,31,54.8,42.2,58.1
GGGAGUAGUGCGGCCGCCACUGAGAAAGAAGAAGAAUAUAGUGAUGUUAUAUAGGAAAGGAAGAACAGGACCGGGCAUUAGAUUU [SSTRyptB.F],232,220,251,232,180
UCCUAGGUCUUCAGGCGAAAGCCCUGCGAAGGAGCGUGCGAAAGCACAGGUAGGUCGCGCAGUGAUGUUGCACCUAGGUAAUAAA [#SwitchBubble 21 #K4Late],843,111,268,115,140
AACUGUCAAGGACAACAUUACUGAGGUGAUACCAGCAUCGAAAGAUGCCCUUGGCAGCACUGACUUGCAGUGAUGUUGCAAGUAA [BrourdMod 8 - Jieux - Exclusion - Theophylline A],208,162,199,215,189
GUUUUAUAGGAGGAUACCAGUACAAAUAAAGUGCAUUAAUAGUAGAGUGAUGUUCUAAAGUACCCUUGGCAGCUUAGUUUAAGUU [#26 K4 Theophylline B Exclusion],151,278,185,357,100
UUUUUCGCGUUUGAUACCAGCAGAGUUGUUCGUGUCUGGAACAUGAGUGAUGUUCAUGUCUGCCCUUGGCAGCAAACGGGAGAAG [KL-XTheo-B13],127,112,103,87.8,124
AGCUCAGAGUGACUCGAUAAGAGUCACAAACGAGGACCGGUACGGCCGCCACUCGAAACAAAGAGAGUGAUGUUCUCGCUGAGCA [FiskerMod 10 - Jieux - Same State Tryptophan A],319,121,176,207,713
CAACCGUAACACGAUACCAGCCUAGAAGCCAGUGAUGUUGGCCUUUUUUCGGAAAUGAAAGGCCCUUGGCAGCGUGGAUGAACUG [Dibibiquus],468,304,380,462,338
UGAGGAGAAUAUGAUACCAGCAGAGAGAGAGAGGAAGUAUAGUGAUGUUAUAUGAGAGAAUGCCCUUGGCAGCAUAAGAAGAAGG [SSTheophylB.B],148,121,142,129,125
CCAUCGCUAUUCGAUACCAGCUACUUAGUGAUGUUAAGUUUUUAUCCACUGUAGGUGGAAAGCCCUUGGCAGCGAAUAGUGAUGG [Theophylline B K4 26],442,357,474,234,417
AUUAAUUUCAGAGGAUAUCGUGAUUUUGUUUAAUUUAUUCAUUUGUGCAGUGAUGUUGCUAAUAUUCGAGAAGGCUGAUUUAUAA [whbob_Ex_FMNB__2th225],161,134,63.3,132,53.3
GUAUCGCUAGGAGGAUAUUUCAAUUUGACUCUUUGAGUUAAUACGGAGUGAUGUUCCGAUUUACGGAAAGAAGGCCUAGUGAUAC [FMN B 13],123,203,238,219,210
AAACUUGCAGUGAUGUUGCAAGUAGGUGAUACCAGCAUCGAAAGAUGCCCUUGGCAGCACCAUCUUGUAACAUAGGUAUCACCAA [(H1)-(H2)-(T1)-(T2)-(H)'-(T)'_Design4],208,208,194,326,225
GCUCAGGAGUGAUGUUCCAAGUGAUGUUAACGAGGACCGGUACGGCCGCCACUCGAUACGGCCGGACCGUAAGAUAAACUAGAGC [Same State - Tryptophan A (Freestyle 8)],196,216,188,380,199
CGUGAGGACCAGAGGUGAUGUAUAGUAUCGCGAGGACCGGUACGGCCGCCACUCGUGAAGAGAAAGGAGUGAUGUUCCGUAAUGG [Kazoo C10],343,292,304,377,110
AAAGUUGAUGAGUUGGGUAUGUGUUCCGAAGGAGCGAGAAUUAUCUCAGGUAGGUCGCGGAACAUGAGUGAUGUUCAUGUAUAAA [KL-XArg-A7 #analogue],345,436,365,423,340
GCAUAUACGAGAAGGAGCGUGCAUGACGAAUUAAUCAUCGACCUUAGUGAUGUUAAGGACGCACAGGUAGGUCGCUCGUGUAUGC [#04 K4 Arginine B Same State],380,322,347,345,354
